The RNAGym collection of RNA variant scans (doi:10.1073/pnas.2313332121)
This sample holds only a part of the variants without activity.

B1: TPR 5TU (parent)
chain: GGAUCUUCUCGAUCUAACAAAAAAGACAAAUCUGCCACAAAGCUUGAGAGCAUCUUCGGAUGCAGAGGCGGCAGCCUUCGGUGGCGCGAUAGCGCCAACGUUCUCAACUAUGACACGCAAAACGCGUGCUCCGUUGAAUGGAGUUUAUCAUG

Variants of: B1
Assay: polymerase ribozyme fitness, log enrichment relative to wild type (log ratio); higher = more active; in vitro selection for triplet polymerase activity
How it was run: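 After PCR construction and transcription, each subunit's mutant library from a heterodimeric triplet polymerase ribozyme was annealed with a biotinylated primer, the partner subunit and triplets. Incubation was frozen, at −7 °C, and extended constructs were gel-excised, bound to streptavidin beads and amplified by RT-PCR, in one selection round done in triplicate. Fitness is the logarithm of a genotype's enrichment divided by that of the wild type, from inverse-variance-weighted replicate averages of Illumina-sequenced inputs and outputs. The base of the logarithm is 2, and genotypes needed ≥10 input reads and ≥1 read per output.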

Row | Variant | polymerase ribozyme fitness (log ratio)
1 | A21G A138C | -4
2 | C5A C57G C72U A73U G80C C93G A110U | ≤ -4.2
3 | U55A C114U | -2.21
4 | A22C A40U C57U G58A G65A C75A G133A A138U A142C | ≤ -4.2
5 | A49G C105U A113G A115C A147U | ≤ -4.2
6 | A16C G58C A60G G83U C116U | -0.784
7 | A47U G50C A121U | -3.92
8 | C103U U139A | -3.96
9 | C35U C69U A91G C118A | -3.8
10 | C57A G58U | 0.207
11 | A3C A12U U56A C93A A98U A107G C129U | ≤ -4.2
12 | U4A A22U C63U G67A C75A G94A C96U | ≤ -4.2
13 | U53A A60U U61A C69G C96U | -3.74
14 | C18A A21G U33G C36A G84A G141C U144A C149U | ≤ -4.2
15 | U56G G71C C85U C116A | ≤ -4.2
16 | A30G G92U A98U | -3.79
17 | A28G U55G G58C G88C G140U | ≤ -4.2
18 | C35U G92U C116U | 0.616
19 | U13A A52G G68C G80A U82G C95G C105U C114A U145G | ≤ -4.2
20 | C10A A39U G86C U109G U130C | ≤ -4.2
21 | G11U U55G A60G G67A C93U | ≤ -4.2
22 | C10G U55G C103A | ≤ -4.2
23 | A24U C96A U145A | 0.748
24 | C14A A20G C38A A39G C54U A91C A106U G124C | ≤ -4.2

Row | Variant | polymerase ribozyme fitness (log ratio)
25 | A26U C54U C95U | -1.76
26 | C5G G50U C57U G92C A120G | -2.75
27 | A106G A142C | -0.922
28 | G25U A29U C43A A64U C93U C131U | ≤ -4.2
29 | G42C U44G A49U U56C G94U U111C G143A | ≤ -4.2
30 | U13C U44A U56A C79U C93G C95U A115C G141U | ≤ -4.2
31 | A28U U53G A66G C69A C79G G94C C108G C129U A137U | ≤ -4.2
32 | C95U C96A C99U C108U | -4.11
33 | U4A U6A A28U A30G U44A G59C A60G C87U A89U A97C A107U | ≤ -4.2
34 | A64C C85A C118G A121C | ≤ -4.2
35 | A16G A30U U90G G152U | ≤ -4.2
36 | A22U A26C U45A G48U U82G C87G C129G | ≤ -4.2
37 | A30C A37C A49C A52C C57G G83A A115U G143C | ≤ -4.2
38 | C51A A73U C99U C103A U104A G126C U139A | ≤ -4.2
39 | C132U C149G | -3.84
40 | C27U C76A | -2.31
41 | A26C C75U G92C | ≤ -4.2
42 | A16C G84U A120G | -2.78
43 | U9C C14G | ≤ -4.2
44 | C76U A115C | -0.614
45 | A60U C69A | -0.294
46 | A73U U102G | ≤ -4.2
47 | U6G U31G U61A C95A G136A | -1.38
48 | G94A C114U | -1.93

Row | Variant | polymerase ribozyme fitness (log ratio)
49 | A19U C87G | -4.17
50 | A20C G46A C69G G94A | -2.22
51 | U56A G117C | -0.369
52 | A49G C54A C118A | -3.25
53 | G48C C57G G67U C85A C93A C96U G140C | ≤ -4.2
54 | G42C U44A A49U A60C C79U C96U C125A A142G | ≤ -4.2
55 | C8G A24G C54U G68A G71A A91U C95A | ≤ -4.2
56 | A30C A52C C85U C99A A115U C131U G141C | ≤ -4.2
57 | G46C U102C G136U | ≤ -4.2
58 | A91G G92A C125G C129G A137G | ≤ -4.2
59 | C43G G50C G62A G84A G92C | ≤ -4.2
60 | U101G A106C A113C A122G | ≤ -4.2
61 | A23C A39C C76A A97G G143C | -3.82
62 | G59C G126U | 0.134
63 | C14G C76G A89C C93G C95G U127G U151G | ≤ -4.2
64 | A28U A66C G83U A122G | -4.16
65 | A12U G92A | -1.81
66 | A20U G58A C96U U111G G124A U148A | ≤ -4.2
67 | U6C A21U U101A U104A U148A | ≤ -4.2
68 | U55G C87U U130C | -0.00301
69 | A17C C27A A52G A60U C69U C85A C95G C125A | ≤ -4.2
70 | U55G U134C G143U | -1.98
71 | C27G C125A | -3.93
72 | A22C G141U | 1.81

Row | Variant | polymerase ribozyme fitness (log ratio)
73 | G59A A60C | -1.48
74 | A29C | -3.73
75 | U13G G46C C54U G92U | -3.24
76 | A52U A91U A115G C131U | ≤ -4.2
77 | A60G A73U C93U | -1.38
78 | A20G G80C U82A G100A U135C | ≤ -4.2
79 | A21U G50U | 0.281
80 | A138U G141C | -3.88
81 | C32U C69A G84A C96G U111A | ≤ -4.2
82 | G48C C85A A120G | -2.75
83 | U4A G25U C35U C87A C93G | ≤ -4.2
84 | C96A U151C | -3.24
85 | U7C G92C | -2.73
86 | G92A G141C | -3.71
87 | G11U C87G | -4.09
88 | C57A G58A | 1.15
89 | C27U A40C G59C G92C A98G C108U C132A U151G | ≤ -4.2
90 | C8U A19U G62A G86C A113C | ≤ -4.2
91 | A17C A110U | -4
92 | G74C A150C | ≤ -4.2
93 | C5G A20G C27A C72U A120U | ≤ -4.2
94 | U4C A22U A26U A40C A52U G67A U90A C99A A150U | ≤ -4.2
95 | U31A G88A U90A G133A | ≤ -4.2
96 | A21C A23G A37C C95G | ≤ -4.2

Row | Variant | polymerase ribozyme fitness (log ratio)
97 | U56A G58A A89C C95G A122C G124C G141C | -1.54
98 | A3U A29C U61C | ≤ -4.2
99 | C38U A106U U145C | -1.24
100 | U56A U82C C87G A150U | -3.31
101 | G59U G86A A147U | -0.0426
102 | U90C U127C | ≤ -4.2
103 | G92U C93U | -2.13
104 | U56G G68U G92A C93A A106U A115U A150C | ≤ -4.2
105 | G83A A115G A150G | -2.88
106 | G81C C85U | 0.0549
107 | U55G G70A C129G | ≤ -4.2
108 | U53A U56A G70U C93U G141C | ≤ -4.2
109 | G124C C132A | -2.4
110 | U4C C85U U101G A147C | -0.704
111 | G94U G128U U139A G141A | ≤ -4.2
112 | A22C U33C G88A A97C C131G | ≤ -4.2
113 | C14A A39C G70A U130G | ≤ -4.2
114 | C76U G84U C125U G141U | -3.46
115 | A3C A16U C93G C118U U130G | ≤ -4.2
116 | G59C G74A G80C U127G A142G | ≤ -4.2
117 | A37U C54A C57A C93U | -3.28
118 | U33G A41U G46C C54G G62C G70U C96A A120G G124U | ≤ -4.2
119 | C10U U56A C93U A122U C149U G152U | ≤ -4.2
120 | U9G C10A C43U C57G C99A | ≤ -4.2

Row | Variant | polymerase ribozyme fitness (log ratio)
121 | A12C A21G C51U G83U | -2.15
122 | G50U C125G | -0.442
123 | A16G G42C C54G G70A C87A C99U A113C G141U U151C | ≤ -4.2
124 | G11A A26C G68U C75U A147C | ≤ -4.2
125 | U53A G59C C76G C85U A89C A97C A107U G117U G133A U139G | ≤ -4.2
126 | A52U U139G U144C | -1.12
127 | C14G U33C U56A C85A C99G G117U C123U | -3.91
128 | C76A G84A | -0.957
129 | G84A U102A | -1.01
130 | C32A A47U C87U | ≤ -4.2
131 | A24G C125G | -3.52
132 | U55A G84U G152C | -3.48
133 | C54G U56A C57A G81U C93U | -0.912
134 | G11U A29C A89C C125U | -4.16
135 | G48A C57G A60G C63A C99G | ≤ -4.2
136 | A3U C93G | -2.5
137 | A41U A52U | -2.47
138 | U13A C85U A107U C125A G126C | ≤ -4.2
139 | A21G C99U | 0.465
140 | C35U C38G U56A | -1.43
141 | U15C C57U G59A G68U G84C C129A | ≤ -4.2
142 | C32G G65C A73G C76U A106G | ≤ -4.2
143 | A37U A52C A73U G86A C96A C108G G133A G141A | ≤ -4.2
144 | G68A C76A G86A U102C G124C G152A | ≤ -4.2

Row | Variant | polymerase ribozyme fitness (log ratio)
145 | A52C A91U C93A G133C | ≤ -4.2
146 | U4A G65A C85U A97U | -2.2
147 | A26C G34C A52C C75A G80C | ≤ -4.2
148 | A19C U61A C103A | ≤ -4.2
149 | A41C G67C G68A G88C G92A A107C | ≤ -4.2
150 | G50U G86A | -2.57
151 | A40U A47C A66C C76U C93A A98G C99G U104C A150U | ≤ -4.2
152 | U6G C114A | -3.22
153 | U13A C18G A30G G65U A91G A115C C118U U144G | ≤ -4.2
154 | C14G G92U | -2.61
155 | G46C G50U A52C A60U G80C C95U A150G | ≤ -4.2
156 | U55A G86U A91U G133U A147U | ≤ -4.2
157 | A17C A47C C95U C116U | -0.195
158 | G25A C32A A40C C123A G124A A138C | ≤ -4.2
159 | C14A A19G G48U A66C A73G G84U U135A U151G | ≤ -4.2
160 | C14U G84U A107U A147U | ≤ -4.2
161 | A12U C85A U139G | -0.992
162 | G50U U53G C69G G94A | ≤ -4.2
163 | C79U G92U | -1.44
164 | C38U C85U C95G C105A | -3.93
165 | G81A G94C A106C A113U C116A G133A | ≤ -4.2
166 | U31G A60G G152U | -3.16
167 | U13A C76A U148G | ≤ -4.2
